Source: patent publication US20120189639A1 (Merck Sharp & Dohme, published 2012)

T1: hGITR-hIgG (human, UniProt Q9Y5U5 26-161, limits assumed)
T1 construct: not shown: human IgG part of the fusion
T1 sequence: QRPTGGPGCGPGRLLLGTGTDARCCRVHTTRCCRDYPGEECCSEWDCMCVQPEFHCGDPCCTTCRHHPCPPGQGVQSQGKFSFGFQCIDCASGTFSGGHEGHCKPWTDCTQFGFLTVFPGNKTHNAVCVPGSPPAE

T2: human GITR on naïve CD4+ T cells (human, UniProt Q9Y5U5 26-241)
T2 sequence: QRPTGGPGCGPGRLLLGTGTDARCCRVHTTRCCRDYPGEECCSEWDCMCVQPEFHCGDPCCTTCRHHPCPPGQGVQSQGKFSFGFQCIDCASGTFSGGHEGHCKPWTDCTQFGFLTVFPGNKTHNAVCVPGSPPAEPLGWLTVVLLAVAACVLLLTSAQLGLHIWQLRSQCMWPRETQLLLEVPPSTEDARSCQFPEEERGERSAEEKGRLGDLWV

B1: 61G6 (antibody, V domains shown)
VH: DVQLQESGPGLVKPSQSLSLTCTVTGYSITSDYAWNWIRQFPGNKLEWMGYISYSGSTRYNPSLKSRISITRDTSKNQFFLQLNSVTSEDTATYYCARQLGLRFFDYWGQGTTLTVSS
VL: QIVLTQSPALMSASPGEKVTMTCSANSTVNYMYWYQQKPRSSPKPCIYLTSNLASGVPARFSGSGSGTSYSLTISSMEAEDAATYYCQQWNSNPPTFGAGTKLELRR
notes: Parental rodent anti-human GITR monoclonal antibody from a hybridoma; kappa VL; also called 61G6.B6; hybridoma PTA-9891
B2: 1D8 (antibody, V domains shown)
VH: QVTLKESGPGILKPSQTLSLTCSFSGFSLSTSGMGVGWIRQPSGKGLEWLAHIWWDDDKYYSPSLKSQLTISKDTSRNQVFLKITSLDTADTATYYCVRSYYYGSSGAMDYWGQGTSVTVSS
VL: DIVMTQTPLSLPVSLGDQASISCRSSQSLVHSDGNTYLHWYLQKPGQSPKLLIYKVSKRFSGVPDRFSGSGSGTDFTLKISRVEAEDLGVYFCSQSTHVPPTFGGGTKLEIKR
notes: Parental rodent anti-human GITR monoclonal antibody from a hybridoma; kappa VL; also called 1D8.B5
B3: 3D6 (antibody, V domains shown)
VH: EVQLVESGGGLVQPGRSLKLSCAASGFTFSDYYMAWVRQAPTKGLEWVAYIHANGGSTYYRDSVRGRFSISRDNGKSTLYLQMDSLRSEDTATYYCTTGSFMYAADYYIMDAWGQGASVTVSS
VL: DVVMTQTPVSLSVSLGNQASISCRSSQSLLHSDGNTFLSWYFQKPGQSPQLLIYLASNRFSGVSNRFSGSGSGTDFTLKISRVEPEDLGVYYCFQHTHLPLTFGSGTKLEIKR
notes: Parental rodent anti-human GITR monoclonal antibody from a hybridoma; kappa VL; also called JL5.3D6; hybridoma PTA-9889
B4: 17F10 (antibody, V domains shown)
VH: EVKLVESGGGFVKPGGSLKLSCAASGFTVRNYAMSWVRQTPEKRLEWVASISTGDRSYLPDSMKGRFTISRDNARNILYLQMSSLRSEDTAIYYCQRYFDFDSFAFWGQGTLVTVSA
VL: DIQMTQTPSSLSASLGDRVTISCRASQDINNFLNWYQQKPDGSLKLLIYYTSKLHSGVPSRFSGSGSGTDFSLTISNLDQEDVATYFCQQGHTLPPTFGGGTKLEVKR
notes: Parental rodent anti-human GITR monoclonal antibody from a hybridoma; kappa VL; also called 17F10.B1
B5: 36E5 (antibody, V domains shown)
VH: EVNLVESGGGLVKPGGSLKVSCAASGFTFSSYAMSWVRQTPEKRLEWVASISSGGTTYYPDSVKGRFTISRDNARNILYLQMSSLRSEDTAMYYCARVGGYYDSMDYWGQGISVTDSS
VL: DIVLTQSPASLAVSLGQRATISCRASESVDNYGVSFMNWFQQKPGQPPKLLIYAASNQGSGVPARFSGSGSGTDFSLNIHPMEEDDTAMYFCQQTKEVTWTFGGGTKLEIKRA
notes: Parental rodent anti-human GITR monoclonal antibody from a hybridoma; kappa VL; also called 36E5.A5

The binders below were run against T1, hGITR-hIgG (assay: BIAcore SPR; hGITR-hIgG capture antigen, mAb analyte; apparent Kd).
Experimental: (§1) BIAcore determinations are performed essentially as described at Example 4 of co-pending, commonly assigned U.S. patent application Ser. No. 11/511,635 (filed 29 Aug. 2006). Briefly, binding partners are immobilized on a BIAcore CM5 sensor chip using standard amine-coupling procedure. Kinetic constants for the various interactions are determined using BIAevaluation software 3.1. The Kd is determined using the calculated dissociation and association rate constants.

Going from B1 to B2, the Kd falls from 15.6 nM to 0.458 nM (34-fold). The second binds more tightly here.

Going from B3 to B4, the Kd falls from 8.05 nM to 0.111 nM (73-fold). The second binds more tightly here.

B5 gave a Kd of 0.205 nM.

What follows are binders tested against T2, human GITR on naïve CD4+ T cells (assay: cell-based or functional assay).

Going from B1 to B3, the “proliferation of naïve CD4+ T cells, mean, at 0.04 ng/mL Ab” value rises from 31000 to 33300.

For B5, the “proliferation of naïve CD4+ T cells, mean, at 0.04 ng/mL Ab” value was 27500.

First: B1
Second: B3
The “proliferation of naïve CD4+ T cells, mean, at 0.15 ng/mL Ab” value of the first is higher: 35600 for the first, 30800 for the second.

For B5, the “proliferation of naïve CD4+ T cells, mean, at 0.15 ng/mL Ab” value was 26200.

Going from B1 to B3, the “proliferation of naïve CD4+ T cells, mean, at 0.61 ng/mL Ab” value rises from 32600 to 33800.

With B5 the “proliferation of naïve CD4+ T cells, mean, at 0.61 ng/mL Ab” value was 31000.

Compared with B1, B3 is higher in “proliferation of naïve CD4+ T cells, mean, at 2.4 ng/mL Ab” value: 28900 for the first, 43100 for the second.

With B5 the “proliferation of naïve CD4+ T cells, mean, at 2.4 ng/mL Ab” value was 47500.

Going from B1 to B3, the “proliferation of naïve CD4+ T cells, mean, at 9.8 ng/mL Ab” value rises from 34300 to 79300.

In the case of B5, the “proliferation of naïve CD4+ T cells, mean, at 9.8 ng/mL Ab” value is reported as 78700.

First: B1
Second: B3
The “proliferation of naïve CD4+ T cells, mean, at 39.1 ng/mL Ab” value of the first is lower: 40100 for the first, 124000 for the second.

In the case of B5, the “proliferation of naïve CD4+ T cells, mean, at 39.1 ng/mL Ab” value is reported as 90300.

Compared with B1, B3 is higher in “proliferation of naïve CD4+ T cells, mean, at 156 ng/mL Ab” value: 45600 for the first, 109000 for the second.

For B5, the “proliferation of naïve CD4+ T cells, mean, at 156 ng/mL Ab” value was 97100.

First: B1
Second: B3
The “proliferation of naïve CD4+ T cells, mean, at 625 ng/mL Ab” value of the first is lower: 75100 for the first, 111000 for the second.

In the case of B5, the “proliferation of naïve CD4+ T cells, mean, at 625 ng/mL Ab” value is reported as 82100.

Compared with B1, B3 is lower in “proliferation of naïve CD4+ T cells, mean, at 2500 ng/mL Ab” value: 116000 for the first, 109000 for the second.

With B5 the “proliferation of naïve CD4+ T cells, mean, at 2500 ng/mL Ab” value was 71800.

Going from B1 to B3, the “proliferation of naïve CD4+ T cells, mean, at 10000 ng/mL Ab” value falls from 135000 to 96200.

With B5 the “proliferation of naïve CD4+ T cells, mean, at 10000 ng/mL Ab” value was 83800.

These binders were tested against T1, hGITR-hIgG (assay: BIAcore SPR; hGITR-hIgG capture antigen, mAb analyte).
Experimental: as §1

Going from B1 to B2, the koff rises from 6.9e-05 s⁻¹ to 0.000196 s⁻¹ (2.8-fold).

Going from B3 to B4, the koff falls from 0.000766 s⁻¹ to 0.000146 s⁻¹ (5.2-fold).

With B5 the koff was 0.000177 s⁻¹.

Going from B1 to B2, the kon rises from 4000 M⁻¹ s⁻¹ to 428000 M⁻¹ s⁻¹ (110-fold).

Compared with B3, B4 is 14-fold higher in kon: 95000 M⁻¹ s⁻¹ for the first, 1.31e+06 M⁻¹ s⁻¹ for the second.

For B5, the kon was 864000 M⁻¹ s⁻¹.

Target: T2, human GITR on naïve CD4+ T cells
Experiment: cell-based or functional assay
Remark: another data set of the same source

First: B2
Second: B4
The “proliferation of naïve CD4+ T cells, mean, at 0.4 ng/mL Ab” value of the first is higher: 60800 for the first, 58700 for the second.

Compared with B2, B4 is lower in “proliferation of naïve CD4+ T cells, mean, at 0.9 ng/mL Ab” value: 64800 for the first, 62000 for the second.

Compared with B2, B4 is lower in “proliferation of naïve CD4+ T cells, mean, at 2.2 ng/mL Ab” value: 78500 for the first, 73400 for the second.

Going from B2 to B4, the “proliferation of naïve CD4+ T cells, mean, at 5.2 ng/mL Ab” value falls from 98200 to 77800.

First: B2
Second: B4
The “proliferation of naïve CD4+ T cells, mean, at 12.6 ng/mL Ab” value of the first is higher: 115000 for the first, 90200 for the second.

Going from B2 to B4, the “proliferation of naïve CD4+ T cells, mean, at 30.1 ng/mL Ab” value falls from 112000 to 87000.

Going from B2 to B4, the “proliferation of naïve CD4+ T cells, mean, at 72.3 ng/mL Ab” value falls from 103000 to 83500.

Compared with B2, B4 is lower in “proliferation of naïve CD4+ T cells, mean, at 173.6 ng/mL Ab” value: 91000 for the first, 87500 for the second.

In the case of B4, the “proliferation of naïve CD4+ T cells, mean, at 416.7 ng/mL Ab” value is reported as 85700.

With B4 the “proliferation of naïve CD4+ T cells, mean, at 1000.0 ng/mL Ab” value was 89400.
